“And” between values parts separate entries of the source, which are not always exact repeats. Equal values may be shown once. “Also recorded” adds a separate entry of the source.
Columns and labels:
[1] = system: post-surgical patients; experiment: AMCA treatment of post-surgical hyperglycemia in patients; type: in vivo, human; details: 10 mg/kg i.v. BID, four post-surgical patients, blood glucose before 10-12 mmol/L
[2] = system: db/db mice; experiment: Blood glucose of db/db mice after injection of test substance; type: in vivo, mouse; details: for active duration of anti-hyperglycemic effect in vivo: i.v. injection, hyperglycemic db/db mice; for anti-hyperglycemic effect (blood glucose): peripheral/i.v. injection, dose not stated
[3] = system: db/db mice; experiment: Serum nesfatin-1 / pladin in db/db after i.v. plasmin inhibitor (HPLC); type: in vivo, mouse
Method: Hypothalamus in acetic acid supplemented with protease inhibitor cocktail tablets (Roche, Indianapolis, Ind.) was homogenized, sonicated and heated at 95° C. for 15 minutes. The samples were then centrifuged at 13,200 rpm at 4° C. for 30 minutes. The supernatants were finally collected as their protein contents were determined by the Bradford assay (Thermo-Fisher Sci. Rockford, Ill.). Mouse serum was freshly prepared by drawing blood through ophthalmectomy. About […] hypothalamic total proteins or 25 μL serum were analyzed with Waters Delta 600E/2487/717 HPLC system using an analytical C18 reverse phase column (4.6×250 mm/5 μm, Hambon, Zhangjiagang, CN). Nesfatin-1 was eluted with a linear gradient from 20%-40% solvent B (solvent A: water with 0.1% trifluoroacetic acid, solvent B: acetonitrile with 0.1% trifluoroacetic acid) for 20 minutes at the flow rate of 1 ml/minute. The purified nesfatin-1 was used as the standard to determine the retention time and plot the standard curve. The fraction collected at the retention time was sent for the mass spectrometry analysis.
Mouse serum was freshly prepared by drawing blood through ophthalmectomy. The sera of plg^−/−lepr^−/− and db/db mice were directly analyzed with Waters Delta 600E/2487/717 HPLC System using a C18 reverse phase column (4.6×250 mm, 5 μm, Hambon, Zhangjiagang, CN) and eluted with a linear gradient from 20%-40% acetonitrile in 0.1% TFA for 20 minutes at the flow rate of 1 ml/minute (Enriori et al., 2007). Compared with db/db mice, the divergent fractions eluted in plg^−/−lepr^−/− mice were collected for the determination of molecular weight using the Applied Biosystems 4800 Proteomics Analyzer (Applied Biosystems). The MS spectra were acquired in the liner mode at a range of peptide mass from 3,000 to 20,000 Dalton.

[4] = system: db/db mice; experiment: Food intake and body weight of db/db mice; type: in vivo, mouse
[5] = system: rat; experiment: 0-3 h food intake of rat after i.p. and i.c.v. injection; type: in vivo; details: for food intake: 0-3 h
[6] = Clearance and half-life of i.v. peptide in circulation; type: in vivo, mouse; details: for clearance from circulation in plg−/− versus wild-type (plg+/+) mice: i.v. injection
[7] = system: Streptozotocin-induced type-1 diabetic C57BL/6J mice; experiment: Streptozotocin-induced type-1 diabetic mice, blood glucose; type: in vivo, mouse
Method: Male C57BL/6J mice (10 weeks) were given intraperitoneal injections of Streptozotocin (STZ) in sodium citrate (pH 4.5) on two consecutive days (100 mg/kg/day). Blood glucose was measured by tail vein sampling using the glucose oxidase enzymatic test. Diabetes was defined as a morning blood glucose reading of >16 mM after STZ. When blood glucose levels exceeded 30 mM, diabetic mice were given 16 ng of porcine insulin (Wangbang, Xuzhou, CN) immediately to prevent the blood glucose being dangerous every second day to prevent weight loss while maintaining blood glucose levels within the hyperglycemic range (16-30 mM). Nesfatin-1 (100 μg/mouse) was i.v. injected either alone or combined with s.c. insulin (2 ng/mouse) to STZ-induced type-I diabetic mice.
Male C57BL/6J mice (10 weeks) were intraperitoneally injected with 100 μg/g/day STZ in 100 mmol/L sodium citrate (pH 4.5) on two consecutive days. Blood glucose was measured by tail vein sampling using the glucose oxidase enzymatic test. When the fasting blood glucose reading was over 16 mmol/L after the STZ injection, the mice were considered to be type-1 diabetic. […]

[8] = system: mice including db/db; experiment: Blood insulin in mice after rPladin; type: in vivo, mouse
[9] = system: wild-type mice; experiment: Intravenous glucose tolerance test (IV-GTT / IGTT) in wild-type mice; type: in vivo, mouse; details: i.v. glucose 1.5 g/kg
Method: In the intravenous (i.v.) glucose tolerance test (IV-GTT), mice injected intravenously with 1 mg or 1.5 mg glucose per gram of body weight and placed in clean cages. Blood glucose was measured immediately before and at 5, 10, 20, 30, 60 and 120 minutes after the injection of glucose.

[10] = molecular target: plasmin (Homo sapiens, UniProt P00747); experiment: Incubation with plasmin in vitro (proteolysis); type: biochemical; details: for proteolysis by plasmin: incubated with plasmin in vitro
plasmin, sequence (P00747 581-810 limits assumed, species assumed): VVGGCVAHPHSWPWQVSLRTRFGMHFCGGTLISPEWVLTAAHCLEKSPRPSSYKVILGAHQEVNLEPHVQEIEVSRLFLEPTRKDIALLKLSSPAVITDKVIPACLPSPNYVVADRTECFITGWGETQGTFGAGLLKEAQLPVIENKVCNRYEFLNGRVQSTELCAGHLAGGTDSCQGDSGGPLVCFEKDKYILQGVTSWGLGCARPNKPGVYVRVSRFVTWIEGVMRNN
plasmin, sequence (P00747 97-580 partner limits assumed, species assumed): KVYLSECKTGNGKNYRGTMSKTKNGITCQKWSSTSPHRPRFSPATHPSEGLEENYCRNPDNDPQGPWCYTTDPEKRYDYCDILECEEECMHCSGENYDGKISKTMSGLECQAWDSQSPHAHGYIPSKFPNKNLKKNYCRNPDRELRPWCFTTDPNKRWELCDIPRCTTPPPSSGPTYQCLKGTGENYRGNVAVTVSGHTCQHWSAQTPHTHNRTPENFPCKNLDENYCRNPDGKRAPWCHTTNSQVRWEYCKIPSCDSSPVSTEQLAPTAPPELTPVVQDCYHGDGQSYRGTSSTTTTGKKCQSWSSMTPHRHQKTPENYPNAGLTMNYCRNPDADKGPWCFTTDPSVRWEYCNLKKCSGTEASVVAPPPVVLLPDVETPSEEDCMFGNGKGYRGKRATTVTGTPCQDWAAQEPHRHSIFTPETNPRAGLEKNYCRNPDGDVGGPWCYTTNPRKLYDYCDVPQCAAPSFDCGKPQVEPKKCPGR
Source text: The recovery of hypothalamic nesfatin-1 in plg^−/−lepr^−/− was consistent to its normalization in food intake and body weight. Fasted mice always had less nesfatin-1 in hypothalamus than their freely feeding counterparties (FIG. 2b). Furthermore, plasminogen deficiency provided a unique approach to study the chronic effect of elevated nesfatin-1 in hyperphagic obese animals, which was impossible for the i.c.v. or i.p. administration due to the short half-time of nesfatin-1. Consequently, agrp and npy were found reduced in plg^−/−lepr^−/−, while pomc was elevated compared with plg^+/+lepr^−/− (FIG. 3), contradicting to the previous report that i.c.v. nesfatin-1 didn't alter the expression of pomc, npy and agrp. Consistent to the present finding, the same group reported the up-regulation of pomc by i.p. nesfatin-1 in NTS recently.
Carefully examining the amino acid sequence of pladin (SEQ ID NO: 23), it has several putative cleavage sites by plasmin (FIG. 11A).

[11] = system: lean wild-type mice; experiment: Blood glucose of lean wild-type mice after i.v. injection; type: in vivo, mouse; details: 10 nmol i.v.
Method: Without anesthesia, mice were placed into a restricting tube. The testing substance such as nesfatin-1 or rPladin was i.v. injected via mice tail vein with a total volume of 150 μL. After that mice were returned to the cages with food and water available freely. In the i.p. injection experiment, mice without anesthesia were injected with the testing substances directly into the peritoneal with a total volume of 200 μL.

[12] = in circulation, Pan et al., 2007, Price et al.; cited from earlier work
[13] = i.c.v. or i.p. injection; cited from earlier work
[14] = system: rats; details: cited from earlier work
[15] = blood-to-brain and brain-to-blood, nonsaturable system; cited from earlier work
[16] = system: ob/ob mice; experiment: Blood lipid analysis in ob/ob mice after i.v. injection; type: in vivo, mouse; details: 100 ug i.v., 3 hours after injection
Method: One hundred ug Nesfatin-1 was injected into the tail vein of ob/ob mice. Blood samples were taken 3 hours after the injection for lipid analysis.

[17] = system: rats; details: injected directly into the brain of rats; cited from earlier work
[18] = i.v. plasmin inhibitor to db/db (AMCA 15 mg/day once daily for three days)
[19] = i.c.v. injection (25 pmol), db/db

## NC[C@H]1CC[C@H](C(=O)O)CC1 [AMCA, tranexamic acid]
[1]
  blood glucose after treatment: 6.8 to 9.2 mmol/L
[2]; once-daily administration for 10 weeks since 2 weeks old, db/db
  fasting blood glucose: reduced significantly
[3]; 10 minutes after i.v. 15 mg
  serum pladin: increased
[3]; 30 minutes after i.v. injection
  circulating (serum) nesfatin-1: increased
[4]; [18]
  body weight: reduction
  food intake: reduction

B1: TKVHNTEPVENARIEPPDTGLYYDEYLKQVIEVLETDPHFREK LQKADIEEIRSGRLSQELDLVSHKVR (protein)
chain: TKVHNTEPVENARIEPPDTGLYYDEYLKQVIEVLETDPHFREKLQKADIEEIRSGRLSQELDLVSHKVR
modifications: amino acids by MALDI-TOF/TOF with Trypsic Peptides
[5]; 25 pmol i.c.v. per rat
  food intake: significantly inhibited food intake
[5]; 30 nmol i.p. per rat
  food intake: significantly inhibited food intake
[5]; i.v., i.p. and i.c.v. administration
  inhibition of food intake relative to nesfatin-1: As potent as nesfatin-1; also recorded: same extent of inhibition in food intake as nesfatin-1
[6]; data not shown
  half-life in circulation: less than 10 minutes
[6]
  clearance from circulation in plg−/− versus wild-type (plg+/+) mice: cleared much slower in plg^−/− than wild-type mice
[7]; 10 nmol per mouse i.v. alone or with s.c. insulin 2 ng/mouse
  blood glucose: lowered by rPladin only when insulin was also subcutaneously injected
[2]; 10 nmol i.v., freely fed db/db
  blood glucose: significantly reduced blood glucose
[2]; [19]
  blood glucose: had no effect on the high levels of blood glucose; also recorded: could not affect blood glucose and insulin
[2]
  active duration of anti-hyperglycemic effect in vivo: 6 h and > 6 h
[2]; db/db
  anti-hyperglycemic effect (blood glucose): significantly reduced blood glucose
[2]; plasmin digested rPladin, db/db (FIG. 11C)
  anti-hyperglycemic effect after incubation with plasmin: lost
[8]; i.c.v. injection, db/db mice
  insulin: could not affect blood glucose and insulin
[8]; i.v. administration, mice including db/db
  blood insulin: did not significantly affect
[4]; 25 pmol i.c.v., db/db mice
  food intake: significantly inhibited food intake
[9]; 10 nmol
  uptake of blood sugar: significantly enhanced the uptake of blood sugar
[10]
  proteolysis by plasmin: rapidly degraded; also recorded: completely digested by plasmin
[11]
  blood glucose: but not in lean wild-type

B2: nesfatin-1: 82 amino-acid fragment of nucb2 (mouse, SEQ ID NO: 18), recombinant, produced in E. coli (protein)
peptide: VPIDVDKTKVHNTEPVENARIEPPDTGLYYDEYLKQVIEVLETDPHFREKLQKADIEEIRSGRLSQELDLVSHKVRTRLDEL
[12]
  half-life of nesfatin-1: 9 to 10 min and 10 min
[6]
  clearance from circulation in plg−/− versus wild-type (plg+/+) mice: cleared much slower in plg^−/− than plg^+/+ mice
[13]
  food intake and body weight: inhibits food intake and thereby reduces body weight
[7]; 100 μg/mouse i.v. alone or with s.c. insulin 2 ng/mouse
  blood glucose: decreased only when nesfatin-1 was injected with s.c. insulin
[2]; 10 nmol i.v., freely fed db/db
  blood glucose: reduced blood glucose
[2]; 100 μg i.v., freely fed db/db
  blood glucose: significantly reduced blood glucose
[2]; [19]
  blood glucose: had no effect on the high levels of blood glucose; also recorded: little diabetic improvement
[2]
  active duration of anti-hyperglycemic effect in vivo: > 6 h
[2]; db/db
  anti-hyperglycemic effect (blood glucose): significantly reduced blood glucose
[14]
  neuropsychological effect: increasing anxiety and fear-related behaviors
[4]; 25 pmol i.c.v., db/db mice
  food intake: significantly inhibited food intake
[15]
  crossing of the blood-brain barrier: crosses the Blood Brain Barrier
[16]
  HDL in blood: unaffected
  LDL in blood: significantly reduced
  total cholesterol in blood: significantly reduced
  triglyceride in blood: significantly reduced
[9]; 100 μg
  uptake of blood sugar: significantly enhanced the uptake of blood sugar
[10]; in vitro, FIG. 1b
  time to complete digestion by plasmin: ≤ 2 h
[10]
  proteolysis by plasmin: rapidly degraded

B3: NUCB2: hypothalamus-secreted protein containing 396 amino acids (protein, UniProt P80303 25-420, looked up)
Nucleobindin-2: VPIDIDKTKVQNIHPVESAKIEPPDTGLYYDEYLKQVIDVLETDKHFREKLQKADIEEIKSGRLSKELDLVSHHVRTKLDELKRQEVGRLRMLIKAKLDSLQDIGMDHQALLKQFDHLNHLNPDKFESTDLDMLIKAATSDLEHYDKTRHEEFKKYEMMKEHERREYLKTLNEEKRKEEESKFEEMKKKHENHPKVNHPGSKDQLKEVWEETDGLDPNDFDPKTFFKLHDVNSDGFLDEQELEALFTKELEKVYDPKNEEDDMVEMEEERLRMREHVMNEVDTNKDRLVTLEEFLKATEKKEFLEPDSWETLDQQQFFTEEELKEYENIIALQENELKKKADELQKQKEELQRQHDQLEAQKLEYHQVIQQMEQKKLQQGIPPSGPAGELKFEPHI
[17]
  anorexia and body weight: promotes anorexia and decreases body weight
